Numbering of substitutions follows the chain as printed.
B1: H0610-G1dh/none-Hi-Kn010G3/L0082-k0 (antibody, V domains shown)
VH: QVQLVQSGAEVKKPGASVKVSCKASGYTFTDYEMHWIRQPPGQGLEWIGAIDGKTPDTAYSQKFKGRVTLTADKSTSTAYMELSSLTSEDTAVYYCTRFYSYTYWGQGTLVTVSS
VL: DIVMTQSPLSLPVTPGEPASISCRSSQSLVHSNRNTYVHWYQQKPGQAPRLLIYKVSNRFSGVPDRFSGSGSGTDFTLKISRVEAEDVGVYYCGQGTQVPYTFGQGTKLEIK
notes: one-arm
B2: H0610-G1dh/none-Hi-Kn010G3/L0117-k0 (antibody, V domains shown)
VH: B1 VH
VL: B1 VL with V38L, F60A
notes: one-arm
B3: H0610-G1dh/none-Hi-Kn010G3/L0090-k0 (antibody, V domains shown)
VH: B1 VH
VL: B1 VL with V38L, H39M
notes: one-arm
B4: H0610-G1dh/none-Hi-Kn010G3/L0175-k0 (antibody, V domains shown)
VH: B1 VH
VL: B1 VL with V38L, V99H
notes: one-arm
B5: H0610-G1dh/none-Hi-Kn010G3/L0157-k0 (antibody, V domains shown)
VH: B1 VH
VL: B1 VL with V38L, G94N
notes: one-arm
B6: H0610-G1dh/none-Hi-Kn010G3/L0181-k0 (antibody, V domains shown)
VH: B1 VH
VL: B1 VL with V38L, V99P
notes: one-arm
B7: H0610-G1dh/none-Hi-Kn010G3/L0140-k0 (antibody, V domains shown)
VH: B1 VH
VL: B1 VL with V38L, S61L
notes: one-arm
B8: H0610-G1dh/none-Hi-Kn010G3/L0149-k0 (antibody, V domains shown)
VH: B1 VH
VL: B1 VL with V38L, G94A
notes: one-arm
B9: H0610-G1dh/none-Hi-Kn010G3/L0120-k0 (antibody, V domains shown)
VH: B1 VH
VL: B1 VL with V38L, F60G
notes: one-arm
B10: H0610-G1dh/none-Hi-Kn010G3/L0093-k0 (antibody, V domains shown)
VH: B1 VH
VL: B1 VL with V38L, H39Q
notes: one-arm
B11: H0610-G1dh/none-Hi-Kn010G3/L0143-k0 (antibody, V domains shown)
VH: B1 VH
VL: B1 VL with V38L, S61P
notes: one-arm
B12: H0610-G1dh/none-Hi-Kn010G3/L0127-k0 (antibody, V domains shown)
VH: B1 VH
VL: B1 VL with V38L, F60P
notes: one-arm
B13: H0610-G1dh/none-Hi-Kn010G3/L0139-k0 (antibody, V domains shown)
VH: B1 VH
VL: B1 VL with V38L, S61I
notes: one-arm
B14: H0610-G1dh/none-Hi-Kn010G3/L0147-k0 (antibody, V domains shown)
VH: B1 VH
VL: B1 VL with V38L, S61V
notes: one-arm
B15: H0610-G1dh/none-Hi-Kn010G3/L0168-k0 (antibody, V domains shown)
VH: B1 VH
VL: B1 VL with V38L, G96T
notes: one-arm
B16: H0610-G1dh/none-Hi-Kn010G3/L0126-k0 (antibody, V domains shown)
VH: B1 VH
VL: B1 VL with V38L, F60N
notes: one-arm
B17: H0610-G1dh/none-Hi-Kn010G3/L0113-k0 (antibody, V domains shown)
VH: B1 VH
VL: B1 VL with V38L, N58T
notes: one-arm
B18: H0610-G1dh/none-Hi-Kn010G3/L0085-k0 (antibody, V domains shown)
VH: B1 VH
VL: B1 VL with V38L, H39E
notes: one-arm
B19: H0610-G1dh/none-Hi-Kn010G3/L0129-k0 (antibody, V domains shown)
VH: B1 VH
VL: B1 VL with V38L, F60R
notes: one-arm
B20: H0610-G1dh/none-Hi-Kn010G3/L0145-k0 (antibody, V domains shown)
VH: B1 VH
VL: B1 VL with V38L, S61R
notes: one-arm
B21: H0610-G1dh/none-Hi-Kn010G3/L0122-k0 (antibody, V domains shown)
VH: B1 VH
VL: B1 VL with V38L, F60I
notes: one-arm
B22: H0610-G1dh/none-Hi-Kn010G3/L0138-k0 (antibody, V domains shown)
VH: B1 VH
VL: B1 VL with V38L, S61H
notes: one-arm
B23: H0610-G1dh/none-Hi-Kn010G3/L0151-k0 (antibody, V domains shown)
VH: B1 VH
VL: B1 VL with V38L, G94E
notes: one-arm
B24: H0610-G1dh/none-Hi-Kn010G3/L0115-k0 (antibody, V domains shown)
VH: B1 VH
VL: B1 VL with V38L, N58W
notes: one-arm
B25: H0610-G1dh/none-Hi-Kn010G3/L0132-k0 (antibody, V domains shown)
VH: B1 VH
VL: B1 VL with V38L, F60V
notes: one-arm
B26: H0610-G1dh/none-Hi-Kn010G3/L0144-k0 (antibody, V domains shown)
VH: B1 VH
VL: B1 VL with V38L, S61Q
notes: one-arm
B27: H0610-G1dh/none-Hi-Kn010G3/L0104-k0 (antibody, V domains shown)
VH: B1 VH
VL: B1 VL with V38L, N58F
notes: one-arm
B28: H0610-G1dh/none-Hi-Kn010G3/L0136-k0 (antibody, V domains shown)
VH: B1 VH
VL: B1 VL with V38L, S61F
notes: one-arm
B29: H0610-G1dh/none-Hi-Kn010G3/L0134-k0 (antibody, V domains shown)
VH: B1 VH
VL: B1 VL with V38L, F60Y
notes: one-arm
B30: H0610-G1dh/none-Hi-Kn010G3/L0167-k0 (antibody, V domains shown)
VH: B1 VH
VL: B1 VL with V38L, G96S
notes: one-arm
B31: H0610-G1dh/none-Hi-Kn010G3/L0123-k0 (antibody, V domains shown)
VH: B1 VH
VL: B1 VL with V38L, F60K
notes: one-arm
B32: H0610-G1dh/none-Hi-Kn010G3/L0161-k0 (antibody, V domains shown)
VH: B1 VH
VL: B1 VL with V38L, G94V
notes: one-arm
B33: H0610-G1dh/none-Hi-Kn010G3/L0152-k0 (antibody, V domains shown)
VH: B1 VH
VL: B1 VL with V38L, G94F
notes: one-arm
B34: H0610-G1dh/none-Hi-Kn010G3/L0106-k0 (antibody, V domains shown)
VH: B1 VH
VL: B1 VL with V38L, N58H
notes: one-arm
B35: H0610-G1dh/none-Hi-Kn010G3/L0173-k0 (antibody, V domains shown)
VH: B1 VH
VL: B1 VL with V38L, V99F
notes: one-arm
B36: H0610-G1dh/none-Hi-Kn010G3/L0180-k0 (antibody, V domains shown)
VH: B1 VH
VL: B1 VL with V38L, V99N
notes: one-arm
B37: H0610-G1dh/none-Hi-Kn010G3/L0109-k0 (antibody, V domains shown)
VH: B1 VH
VL: B1 VL with V38L, N58M
notes: one-arm
B38: H0610-G1dh/none-Hi-Kn010G3/L0155-k0 (antibody, V domains shown)
VH: B1 VH
VL: B1 VL with V38L, G94L
notes: one-arm
B39: H0610-G1dh/none-Hi-Kn010G3/L0163-k0 (antibody, V domains shown)
VH: B1 VH
VL: B1 VL with V38L, G94Y
notes: one-arm
B40: H0610-G1dh/none-Hi-Kn010G3/L0141-k0 (antibody, V domains shown)
VH: B1 VH
VL: B1 VL with V38L, S61M
notes: one-arm
B41: H0610-G1dh/none-Hi-Kn010G3/L0125-k0 (antibody, V domains shown)
VH: B1 VH
VL: B1 VL with V38L, F60M
notes: one-arm
B42: H0610-G1dh/none-Hi-Kn010G3/L0124-k0 (antibody, V domains shown)
VH: B1 VH
VL: B1 VL with V38L, F60L
notes: one-arm
B43: H0610-G1dh/none-Hi-Kn010G3/L0160-k0 (antibody, V domains shown)
VH: B1 VH
VL: B1 VL with V38L, G94T
notes: one-arm
B44: H0610-G1dh/none-Hi-Kn010G3/L0091-k0 (antibody, V domains shown)
VH: B1 VH
VL: B1 VL with V38L, H39N
notes: one-arm
B45: H0610-G1dh/none-Hi-Kn010G3/L0089-k0 (antibody, V domains shown)
VH: B1 VH
VL: B1 VL with V38L, H39L
notes: one-arm
B46: H0610-G1dh/none-Hi-Kn010G3/L0148-k0 (antibody, V domains shown)
VH: B1 VH
VL: B1 VL with V38L, S61W
notes: one-arm
B47: H0610-G1dh/none-Hi-Kn010G3/L0107-k0 (antibody, V domains shown)
VH: B1 VH
VL: B1 VL with V38L, N58I
notes: one-arm
B48: H0610-G1dh/none-Hi-Kn010G3/L0154-k0 (antibody, V domains shown)
VH: B1 VH
VL: B1 VL with V38L, G94I
notes: one-arm
B49: H0610-G1dh/none-Hi-Kn010G3/L0137-k0 (antibody, V domains shown)
VH: B1 VH
VL: B1 VL with V38L, S61G
notes: one-arm

Target: T1, human GPC3 (human, UniProt P51654 25-563)
T1 construct: range 25-563; soluble analyte; also called soluble human GPC3; glypican 3
Assay: SPR

T1 sequence (P51654 25-563 limits assumed): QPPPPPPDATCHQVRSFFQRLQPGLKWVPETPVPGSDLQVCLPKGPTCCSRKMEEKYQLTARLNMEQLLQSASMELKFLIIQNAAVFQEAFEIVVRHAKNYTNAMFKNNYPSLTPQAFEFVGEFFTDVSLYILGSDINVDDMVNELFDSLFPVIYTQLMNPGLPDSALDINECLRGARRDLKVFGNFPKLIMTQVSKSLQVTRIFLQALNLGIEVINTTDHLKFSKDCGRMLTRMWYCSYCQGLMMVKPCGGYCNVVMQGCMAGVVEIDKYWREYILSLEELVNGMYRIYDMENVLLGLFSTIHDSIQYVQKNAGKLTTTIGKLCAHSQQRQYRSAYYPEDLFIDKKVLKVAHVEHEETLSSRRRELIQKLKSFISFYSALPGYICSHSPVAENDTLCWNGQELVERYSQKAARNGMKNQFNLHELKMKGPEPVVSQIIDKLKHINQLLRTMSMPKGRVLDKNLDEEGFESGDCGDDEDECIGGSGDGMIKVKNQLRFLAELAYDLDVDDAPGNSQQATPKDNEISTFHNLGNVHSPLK

Row | Kd [nM] | Binder
1 | 3.43 | B1
2 | 4.92 | B2
3 | 1.12 | B3
4 | 3.84 | B4
5 | 2.6 | B5
6 | 3.51 | B6
7 | 3.38 | B7
8 | 2.16 | B8
9 | 4.54 | B9
10 | 0.106 | B10
11 | 0.573 | B11
12 | 3.12 | B12
13 | 4.78 | B13
14 | 4.38 | B14
15 | 0.699 | B15
16 | 5.62 | B16
17 | 4.82 | B17
18 | 1.17 | B18
19 | 5.28 | B19
20 | 2.66 | B20
21 | 2.42 | B21
22 | 5.24 | B22
23 | 1.25 | B23
24 | 4.34 | B24
25 | 5.65 | B25

Row | Kd [nM] | Binder
26 | 4.84 | B26
27 | 5.9 | B27
28 | 5.04 | B28
29 | 2.53 | B29
30 | 0.211 | B30
31 | 5.08 | B31
32 | 0.973 | B32
33 | 2.36 | B33
34 | 5.66 | B34
35 | 2.83 | B35
36 | 4.48 | B36
37 | 5.7 | B37
38 | 1.28 | B38
39 | 3.38 | B39
40 | 3.86 | B40
41 | 1.71 | B41
42 | 0.972 | B42
43 | 2.12 | B43
44 | 5.43 | B44
45 | 5.24 | B45
46 | 3.28 | B46
47 | 4.38 | B47
48 | 1.01 | B48
49 | 5.87 | B49
